# Results taken from PMC5332220.
# pKd: −log10 of the molar value. Read-outs that look alike come from different tables or passages of the source.
# Columns and labels:
# SspB_nano [1] = target: SspB_nano (UniProt P45206); experiment: fluorescence polarisation
# SspB_micro [2] = target: SspB_micro (UniProt P45206); experiment: fluorescence polarisation
# SspB_milli [3] = target: SspB_milli (UniProt P45206); experiment: fluorescence polarisation
# SspB_nano [4] = target: SspB_nano (UniProt P45206); experiment: fluorescence polarisation; remark: listed apart in the source
# SspB_micro [5] = target: SspB_micro (UniProt P45206); experiment: fluorescence polarisation; remark: listed apart in the source
# SspB_milli [6] = target: SspB_milli (UniProt P45206); experiment: fluorescence polarisation; remark: listed apart in the source
# SspB_nano [7] = target: SspB_nano (UniProt P45206)
# SspB_micro [8] = target: SspB_micro (UniProt P45206)
# SspB_milli [9] = target: SspB_milli (UniProt P45206)
substance,measurement,setting,value
sLID (slow Light Inducible Dimer) (designed binder),pKd,SspB_nano [1],8.15
same,pKd,SspB_micro [2],6.96
same,pKd,SspB_milli [3],5.52
same,pKd,SspB_nano [4],6.51
same,pKd,SspB_micro [5],5.60
same,pKd,SspB_milli [6],3.90
same,"spine/shaft ratio of GluA1-mCh-SspB fluorescence, dark",SspB_nano [7],2.8
same,"spine/shaft ratio of GluA1-mCh-SspB fluorescence, light",SspB_nano [7],2.9
same,"spine/shaft ratio of GluA1-mCh-SspB fluorescence, dark",SspB_micro [8],1.5
same,"spine/shaft ratio of GluA1-mCh-SspB fluorescence, light",SspB_micro [8],1.8
same,"spine/shaft ratio of GluA1-mCh-SspB fluorescence, dark",SspB_milli [9],1.5
same,"spine/shaft ratio of GluA1-mCh-SspB fluorescence, light",SspB_milli [9],2.4
